IntAct's records for PubMed 31515488

B1: DNA topoisomerase 3-beta-1 (Homo sapiens), O95985 (parent)
chain: MKTVLMVAEKPSLAQSIAKILSRGSLSSHKGLNGACSVHEYTGTFAGQPVRFKMTSVCGHVMTLDFLGKYNKWDKVDPAELFSQAPTEKKEANPKLNMVKFLQVEGRGCDYIVLWLDCDKEGENICFEVLDAVLPVMNKAHGGEKTVFRARFSSITDTDICNAMACLGEPDHNEALSVDARQELDLRIGCAFTRFQTKYFQGKYGDLDSSLISFGPCQTPTLGFCVERHDKIQSFKPETYWVLQAKVNTDKDRSLLLDWDRVRVFDREIAQMFLNMTKLEKEAQVEATSRKEKAKQRPLALNTVEMLRVASSSLGMGPQHAMQTAERLYTQGYISYPRTETTHYPENFDLKGSLRQQANHPYWADTVKRLLAEGINRPRKGHDAGDHPPITPMKSATEAELGGDAWRLYEYITRHFIATVSHDCKYLQSTISFRIGPELFTCSGKTVLSPGFTEVMPWQSVPLEESLPTCQRGDAFPVGEVKMLEKQTNPPDYLTEAELITLMEKHGIGTDASIPVHINNICQRNYVTVESGRRLKPTNLGIVLVHGYYKIDAELVLPTIRSAVEKQLNLIAQGKADYRQVLGHTLDVFKRKFHYFVDSIAGMDELMEVSFSPLAATGKPLSRCGKCHRFMKYIQAKPSRLHCSHCDETYTLPQNGTIKLYKELRCPLDDFELVLWSSGSRGKSYPLCPYCYNHPPFRDMKKGMGCNECTHPSCQHSLSMLGIGQCVECESGVLVLDPTSGPKWKVACNKCNVVAHCFENAHRVRVSADTCSVCEAALLDVDFNKAKSPLPGDETQHMGCVFCDPVFQELVELKHAASCHPMHRGGPGRRQGRGRGRARRPPGKPNPRRPKDKMSALAAYFV
B2: Protein FAM200C (Homo sapiens), Q8IZ13 (parent)
chain: MSKKRKWDDDYVRYWFTCTTEVDGTQRPQCVLCNSVFSNADLRPSKLSDHFNRQHGGVAGHDLNSLKHMPAPSDQSETLKAFGVASHEDTLLQASYQFAYLCAKEKNPHTVAEKLVKPCALEIAQIVLGPDAQKKLQQVPLSDDVIHSRIDEMSQDILQQVLEDIKASPLKVGIQLAETTDMDDCSQLMAFVRYIKEREIVEEFLFCEPLQLSMKGIDVFNLFRDFFLKHKIALDVCGSVCTDGASSMLGENSEFVAYVKKEIPHIVVTHCLLNPHALVIKTLPTKLRDALFTVVRVINFIKGRAPNHRLFQAFFEEIGIEYSVLLFHTEMRWLSRGQILTHIFEMYEEINQFLHHKSSNLVDGFENKEFKIHLAYLADLFKHLNELSASMQRTGMNTVSAREKLSAFVRKFPFWQKRIEKRNFTNFPFLEEIIVSDNEGIFIAAEITLHLQQLSNFFHGYFSIGDLNEASKWILDPFLFNIDFVDDSYLMKNDLAELRASGQILMEFETMKLEDFWCAQFTAFPNLAKTALEILMPFATTYLCELGFSSLLHFKTKSRSCFNLSDDIRVAISKKVPRFSDIIEQKLQLQQKSL
partner: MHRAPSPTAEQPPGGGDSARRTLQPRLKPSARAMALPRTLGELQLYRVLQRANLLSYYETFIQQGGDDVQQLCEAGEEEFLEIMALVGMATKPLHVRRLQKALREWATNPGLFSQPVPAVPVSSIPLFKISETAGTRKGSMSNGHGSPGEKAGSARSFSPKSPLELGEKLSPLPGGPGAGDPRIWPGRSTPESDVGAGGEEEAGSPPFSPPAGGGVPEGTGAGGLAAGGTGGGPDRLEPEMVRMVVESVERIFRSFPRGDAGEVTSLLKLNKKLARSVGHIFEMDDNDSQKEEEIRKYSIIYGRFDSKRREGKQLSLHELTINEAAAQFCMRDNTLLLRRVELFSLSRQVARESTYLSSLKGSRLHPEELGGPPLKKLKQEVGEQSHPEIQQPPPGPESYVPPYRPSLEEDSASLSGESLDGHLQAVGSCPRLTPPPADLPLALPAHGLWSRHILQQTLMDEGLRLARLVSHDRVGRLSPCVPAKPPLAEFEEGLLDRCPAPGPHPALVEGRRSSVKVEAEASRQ
B3: IQ motif and ubiquitin-like domain-containing protein (Homo sapiens), Q8NA54 (parent)
chain: MSNQQEKYEAQNIVNSTEESDDAFDTVTIPVPSEEPQESDQTEEHESGIEQFSESHAIHVEEQSDQSFSSLEPDNEQLMEEVISPRQVSYTPQHHEKQYAMQRPNDDSLAFLDKIKSVKESLQESVEDSLATVKVVLIPVGQEIVIPFKVDTILKYLKDHFSHLLGIPHSVLQIRYSGKILKNNETLVQHGVKPQEIVQVEIFSTNPDLYPVRRIDGLTDVSQIITVTVQTGLDQYQQVPVEIVKSDFHKPFLGGFRHKVTGVEYHNAGTQTVPKRIPERLSIFCRDTQTVFQKKNLQQTTNTTSTQMTNIGVYVSNMTDKLVTPGKYFSAAEYHAQRLKAVIVIQTYYRQWHAKIFVENLRRQKSLRLEWETQQELRKIREKEEWIKLDYHRRHNPKTNEDFEFLYNALEFWRQEELTRINQSFTGAERKAALCELLEKETQIIASIGRHRYIAYMANQEAAIQAFLDKCSAPKIWRTPNGKTIEMDTQFTIRARELQNIYKCIMLKNISQDERLDVLLTLKHTVKEHECKLTQEILELIDREVDLMMRGVKHHNLEGLRKRIATLFFHYIKTPLFNPEVAKYLKVPQDPLKFYKKIYFCHSCQLYLPSTEFSVSSTSRRIYRCRNCINLQNEAQKRESFLKYKCLLQQLYYTEADYEDDSKIAFLMQLQDIQYLTENIWASQSVLSACDNLSDLVMVRWNKSLEWSPWNCILLTKDEAAAHLKLTSIEEGYERSFIHKIKHKHILAKNYFSQVPVLASFILDDGEIDEIRWKYHSDTTPKIIESQRPPH
partner: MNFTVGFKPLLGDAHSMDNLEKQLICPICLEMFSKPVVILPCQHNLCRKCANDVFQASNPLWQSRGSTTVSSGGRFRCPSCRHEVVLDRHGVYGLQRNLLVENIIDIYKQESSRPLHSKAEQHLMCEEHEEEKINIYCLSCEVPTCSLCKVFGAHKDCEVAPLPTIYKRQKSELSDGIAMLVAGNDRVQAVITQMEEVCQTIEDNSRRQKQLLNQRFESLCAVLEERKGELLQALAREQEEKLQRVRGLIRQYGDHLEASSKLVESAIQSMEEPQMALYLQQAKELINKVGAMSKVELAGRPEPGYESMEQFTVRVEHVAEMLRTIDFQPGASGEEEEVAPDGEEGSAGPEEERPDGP

Variants of: B1
Conditions: with trim1_human MID2, Q9UJV3
Sequence of trim1_human MID2, Q9UJV3 (Q9UJV3 whole entry): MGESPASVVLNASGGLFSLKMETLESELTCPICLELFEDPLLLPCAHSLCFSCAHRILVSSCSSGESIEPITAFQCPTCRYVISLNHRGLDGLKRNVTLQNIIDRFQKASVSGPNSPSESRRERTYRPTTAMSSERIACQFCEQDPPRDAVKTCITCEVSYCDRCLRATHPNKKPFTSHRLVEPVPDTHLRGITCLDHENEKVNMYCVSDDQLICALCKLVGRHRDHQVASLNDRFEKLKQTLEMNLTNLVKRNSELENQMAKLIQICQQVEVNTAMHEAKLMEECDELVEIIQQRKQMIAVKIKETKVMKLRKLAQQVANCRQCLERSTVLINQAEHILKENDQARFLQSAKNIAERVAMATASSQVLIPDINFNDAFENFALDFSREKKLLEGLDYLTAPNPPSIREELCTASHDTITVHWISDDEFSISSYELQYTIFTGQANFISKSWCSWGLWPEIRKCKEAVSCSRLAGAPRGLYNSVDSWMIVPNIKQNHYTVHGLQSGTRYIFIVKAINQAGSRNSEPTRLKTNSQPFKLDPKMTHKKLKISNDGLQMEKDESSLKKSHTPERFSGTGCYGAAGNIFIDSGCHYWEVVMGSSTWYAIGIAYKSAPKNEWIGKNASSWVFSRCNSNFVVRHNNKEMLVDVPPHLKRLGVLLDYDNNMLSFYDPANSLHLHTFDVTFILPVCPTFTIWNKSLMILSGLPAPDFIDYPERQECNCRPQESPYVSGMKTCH

Variant | effect of a mutation on the interaction
R267W | disrupting interaction strength

Variants of: B1
Conditions: with tri41_human TRIM41, Q8WV44

Variant | effect of a mutation on the interaction
R267W | disrupting interaction strength

Variants of: B2
Conditions: with nab2_human NAB2, Q15742

Variant | effect of a mutation on the interaction
M248K | with no effect
A523S | with no effect

Variants of: B3
Conditions: with tri54_human TRIM54, Q9BYV2

Variant | effect of a mutation on the interaction
I501F | disrupting interaction strength
V126M | with no effect
